Measured values reported in US20130143299A1.

Biological target: human Erk2 (extracellular signal-regulated kinase 2), purchased from Sigma (human), P28482
Test: ELISA, purified clone 500 ng/well on immobilised antigen, anti-FLAG-HRP detection

Chain of human Erk2 (extracellular signal-regulated kinase 2), purchased from Sigma (human), P28482 (P28482 whole entry): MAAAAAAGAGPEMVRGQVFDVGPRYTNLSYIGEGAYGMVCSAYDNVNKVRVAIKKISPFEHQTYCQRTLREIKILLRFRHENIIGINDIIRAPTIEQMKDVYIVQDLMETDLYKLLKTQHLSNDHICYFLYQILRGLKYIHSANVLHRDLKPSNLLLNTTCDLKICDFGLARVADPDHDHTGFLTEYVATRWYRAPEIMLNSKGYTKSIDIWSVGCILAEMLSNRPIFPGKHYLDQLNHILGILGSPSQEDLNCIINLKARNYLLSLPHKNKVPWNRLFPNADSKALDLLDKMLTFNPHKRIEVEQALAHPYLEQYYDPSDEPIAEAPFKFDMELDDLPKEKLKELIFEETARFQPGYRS

ELISA (S/N): 25.6 S/N
B1: Erk2-binding clone group J (RNF8-FHA domain-modified protein) (designed binder, not shown: large carriers)
chain: GEPGFFVTGDRAGGRSWCLRRVGMSAGWLLLEDGCEVTVGFGTGVTYQLVSKYLPSWFTYNHCVLKQNPEGQWTIMDNKSLTGVWLNRARLEPLRVYSIHQGDYIQLGSLREXSENAEYEYEVTEEDWETIYPCLSPKNDQMIEKN
modifications: not fully specified; X: residue not identified in the source; also: N-terminal MBP-Strep/FLAG fusion partner, sequence not given here
